Tests used:
[1] = tested on: transgenic mouse model p16-3MR; settings: after doxorubicin or paclitaxel; cited from earlier work
[2] = tested on: transgenic mouse model p16-3MR; settings: cited from earlier work; for Induction of senescence in vivo: keratinocytes, endothelial cells, fibroblasts and smooth muscle cells; for p16INK4a expression in the skin: mice administered the agent
[3] = tested on: murine embryonic fibroblasts, murine dermal fibroblasts and human dermal fibroblasts; settings: fibroblasts treated in vitro; cited from earlier work
[4] = tested on: CML-KLH; experiment: Direct binding ELISA, CML-KLH coat; settings: for OD450 absorbance: CML-KLH Coat
Text: (§1) The binding of the murine (parental) and chimeric anti-AGE antibodies described in Example 3 was investigated by a direct binding ELISA. An anti-carboxymethyl lysine (CML) antibody (R&D Systems, MAB3247) was used as a control. CML was conjugated to KLH (CML-KLH) and both CML and CML-KLH were coated overnight onto an ELISA plate. HRP-goat anti-mouse Fc was used to detect the control and murine (parental) anti-AGE antibodies. HRP-goat anti-human Fc was used to detect the chimeric anti-AGE antibody.
(§2) The antigens were diluted to 1 μg/mL in 1× phosphate buffer at pH 6.5. A 96-well microtiter ELISA plate was coated with 100 μL/well of the diluted antigen and let sit at 4° C. overnight. The plate was blocked with 1×PBS, 2.5% BSA and allowed to sit for 1-2 hours the next morning at room temperature. The antibody samples were prepared in serial dilutions with 1×PBS, 1% BSA with the starting concentration of 50 μg/mL. Secondary antibodies were diluted 1:5,000. 100 μL of the antibody dilutions was applied to each well. The plate was incubated at room temperature for 0.5-1 hour on a microplate shaker. The plate was washed 3 times with 1×PBS. 100 μL/well diluted HRP-conjugated goat anti-human Fc secondary antibody was applied to the wells. The plate was incubated for 1 hour on a microplate shaker. The plate was then washed 3 times with 1×PBS. 100 μL HRP substrate TMB was added to each well to develop the plate. After 3-5 minutes elapsed, the reaction was terminated by adding 100 μL of 1N HCl. A second direct binding ELISA was performed with only CML coating. The absorbance at OD450 was read using a microplate reader.
(§3) The OD450 absorbance raw data for the CML and CML-KLH ELISA is shown in the plate map below. 48 of the 96 wells in the well plate were used. Blank wells in the plate map indicate unused wells.

[5] = Direct binding ELISA, CML coat
Text: as §1, §2, §3
The OD450 absorbance raw data for the CML-only ELISA is shown in the plate map below. 24 of the 96 wells in the well plate were used. Blank wells in the plate map indicate unused wells.

CC1(C)CCC(c2ccc(Cl)cc2)=C(CN2CCN(c3ccc(C(=O)NS(=O)(=O)c4ccc(N[C@H](CCN5CCOCC5)CSc5ccccc5)c(S(=O)(=O)C(F)(F)F)c4)cc3)CC2)C1 [ABT-263]
Effect of elimination of senescent cells on running activity and strength [1]: nearly reversed the decline in running activity and improved the loss of strength

N.N.[Cl][Pt][Cl] [cisplatin]
Induction of senescence in vivo [2]: induced senescence in various cell types | p16INK4a expression in the skin [2]: elevated p^16INK4a expression in the skin

CC(=O)O[C@H]1C(=O)[C@@]2(C)[C@H]([C@H](OC(=O)c3ccccc3)[C@]3(O)C[C@H](OC(=O)[C@H](O)[C@@H](NC(=O)c4ccccc4)c4ccccc4)C(C)=C1C3(C)C)[C@]1(OC(C)=O)CO[C@@H]1C[C@@H]2O [paclitaxel]
Induction of cellular senescence (SA-β-gal, DNA synthesis, p16INK4a mRNA, SASP, p21, LaminB1) [3]: symptoms of cellular senescence

Cn1nnc2c(C(N)=O)ncn2c1=O [temozolomide]
Induction of senescence in vivo [2]: induced senescence in various cell types | p16INK4a expression in the skin [2]: elevated p^16INK4a expression in the skin

B1: Parental Anti-AGE: murine anti-AGE IgG2b antibody, heavy chain DNA SEQ ID NO: 12, kappa light chain DNA SEQ ID NO: 14 (antibody)
heavy: MDPKGSLSWRILLFLSLAFELSYGQVQLLQPGAELVKPGASVKLACKASGYLFTTYWMHWLKQRPGQGLEWIGEISPTNGRAYYNARFKSEATLTVDKSSNTAYMQLSSLTSEASAVYYCARAYGNYEFAYWGQGTLVTVSVAKTTPPSVYPLAPGCGDTTGSSVTLGCLVKGYFPESVTVTWNSGSLSSSVHTFPALLQSGLYTMSSSVTVPSSTWPSQTVTCSVAHPASSTTVDKKLEPSGPISTINPCPPCKECHKCPAPNLEGGPSVFIFPPNIKDVLMISLTPKVTCVVVDVSEDDPDVQISWFVNNVEVHTAQTQTHREDYNSTIRVVSTLPIQHQDWMSGKEFKCKVNNKDLPSPIERTISKIKGLVRAPQVYILPPPAEQLSRKDVSLTCLVVGFNPGDISVEWTSNGHTEENYKDTAPVLDSDGSYFIYSKLNMKTSKWEKTDSFSCNVRHEGLKNYYLKKTISRSPG
light: METDTLLLWVLLLWVPGSTGDVVMTQTPLSLPVSLGDQASISCRSRQSLVNSNGNTFLQWYLQKPGQSPKLLIYKVSLRFSGVPDRFSGSGSGTDFTLKISRVEAEDLGLYFCSQSTHVPPTFGGGTKLEIKRADAAPTVSIFPPSSEQLTSGGASVVCFLNNFYPKDINVKWKIDGSERQNGVLNSWTDQDSKDSTYSMSSTLTLTKDEYERHNSYTCEATHKTSTSPIVKSFNRNEC
modifications: Murine anti-AGE IgG2b heavy chain; Murine anti-AGE Kappa light chain
OD450 absorbance ([4]; antibody 0.07 μg/mL): 0.086 | OD450 absorbance ([4]; antibody 0.21 μg/mL): 0.066 | OD450 absorbance ([4]; antibody 0.62 μg/mL): 0.072 | OD450 absorbance ([4]; antibody 1.85 μg/mL): 0.063 | OD450 absorbance ([4]; antibody 5.56 μg/mL): 0.063 | OD450 absorbance ([4]; antibody 16.67 μg/mL): 0.067 | OD450 absorbance ([4]; antibody 50 μg/mL): 0.092 | Binding to CML-KLH (in words) ([4]; direct binding ELISA): very weak to no binding | OD450 absorbance ([5]; CML Coat (CML and CML-KLH ELISA), antibody 0.07 μg/mL): 0.096 | OD450 absorbance ([5]; CML Coat (CML and CML-KLH ELISA), antibody 0.21 μg/mL): 0.096 | OD450 absorbance ([5]; CML Coat (CML and CML-KLH ELISA), antibody 0.62 μg/mL): 0.085 | OD450 absorbance ([5]; CML Coat (CML and CML-KLH ELISA), antibody 1.85 μg/mL): 0.099 | OD450 absorbance ([5]; CML Coat (CML and CML-KLH ELISA), antibody 5.56 μg/mL): 0.115 | OD450 absorbance ([5]; CML Coat (CML and CML-KLH ELISA), antibody 16.67 μg/mL): 0.13 | OD450 absorbance ([5]; CML Coat (CML and CML-KLH ELISA), antibody 50 μg/mL): 0.142 | Binding to CML (in words) ([5]; direct binding ELISA): very weak to no binding | OD450 absorbance ([5]; second, CML-only ELISA, antibody 0.068587 μg/mL): 0.055 | OD450 absorbance ([5]; second, CML-only ELISA, antibody 0.205761 μg/mL): 0.056 | OD450 absorbance ([5]; second, CML-only ELISA, antibody 0.617284 μg/mL): 0.103 | OD450 absorbance ([5]; second, CML-only ELISA, antibody 1.851852 μg/mL): 0.078 | OD450 absorbance ([5]; second, CML-only ELISA, antibody 5.555556 μg/mL): 0.166 | OD450 absorbance ([5]; second, CML-only ELISA, antibody 16.66667 μg/mL): 0.226 | OD450 absorbance ([5]; second, CML-only ELISA, antibody 50 μg/mL): 0.165

Source: patent US20220175916A1, “METHODS AND COMPOSITIONS FOR TREATING CHRONIC EFFECTS OF RADIATION AND CHEMICAL EXPOSURE” (priority 2018, published 2022)
